Positions count from the first letter of the chain named.
B1: mAb25508 (antibody, human IgG4, V domains shown)
VH: EVQLVESGGGVVRPGGSLRLSCAASGFNVDDYGMSWVRQIPGKGLEWISGINWNGGRIYYADSMKGRITISRDNAKNSLYLQMNSLRAEDTALYHCVRDQWLVRGLDYWGQGTLVTVSS
VL: DIQMTQSPSSLSASVGDRVTITCRASQGIYNYLAWFQQKPGKAPKSLIYAASSLQSGVPSKFSGSGSGTDFTLTISSLQPEDFATYYCQQYNTYPYTFGQGTKLEIK
B2: mAb25498 (antibody, human IgG4, V domains shown)
VH: QVQLVESGGGVVQPGRSLRLSCVASGFTFSSYGMVWVRQTPGKGLEWVAVIWHDGTNNYYADSVKGRFTISRDNSKNTLYLQMNSLRAEDTAVYYCAREPWLVRGYYYYAMDVWGQGTTVTVSS
VL: not shown
B3: mAb25497 (antibody, human IgG4, V domains shown)
VH: QVQLVQSGAEVKEPGASVKVSCKASGYTFTDYYIHWVRQAPGQGLEWMGWINLNSGGKNHAQKFQGRVTVTSDTSINTAYIELGRLRGDDTAVYYCSRGGGSHYYYYYHGMDVWGQGTTVTVSS
VL: DIQMTQSPSSLSASVGDRITITCRASHSIDSYLNWYQQKPGKAPKLLIYPASTLQSGVPSRFSGSGSGTDFTLTISSLQPEDSAIYYCQQSYSTPLTFGGGTKVEIK
B4: mAb25479 (antibody, human IgG4, V domains shown)
VH: QVQLVQSGAEVKKPGASVKVSCKASGYTFTGYYIHWVRQAPGQGLEWMGWINPNSIGTNYAQKFQGRVTLTRDTSISTAYMELSSLRSDDTAVYYCARGGSSSYYYYYYGMDVWGQGTTVTVSS
VL: B3 VL with I19V, H27Q, S31N, P50V, T53S, S83F, I85T

What follows are binders tested against T1, human NPR1 on HEK293/hNPR1.myc.DDK cells (0 hANP) (human, UniProt P16066 33-1061) (assay: cell-based or functional assay).
T1 sequence: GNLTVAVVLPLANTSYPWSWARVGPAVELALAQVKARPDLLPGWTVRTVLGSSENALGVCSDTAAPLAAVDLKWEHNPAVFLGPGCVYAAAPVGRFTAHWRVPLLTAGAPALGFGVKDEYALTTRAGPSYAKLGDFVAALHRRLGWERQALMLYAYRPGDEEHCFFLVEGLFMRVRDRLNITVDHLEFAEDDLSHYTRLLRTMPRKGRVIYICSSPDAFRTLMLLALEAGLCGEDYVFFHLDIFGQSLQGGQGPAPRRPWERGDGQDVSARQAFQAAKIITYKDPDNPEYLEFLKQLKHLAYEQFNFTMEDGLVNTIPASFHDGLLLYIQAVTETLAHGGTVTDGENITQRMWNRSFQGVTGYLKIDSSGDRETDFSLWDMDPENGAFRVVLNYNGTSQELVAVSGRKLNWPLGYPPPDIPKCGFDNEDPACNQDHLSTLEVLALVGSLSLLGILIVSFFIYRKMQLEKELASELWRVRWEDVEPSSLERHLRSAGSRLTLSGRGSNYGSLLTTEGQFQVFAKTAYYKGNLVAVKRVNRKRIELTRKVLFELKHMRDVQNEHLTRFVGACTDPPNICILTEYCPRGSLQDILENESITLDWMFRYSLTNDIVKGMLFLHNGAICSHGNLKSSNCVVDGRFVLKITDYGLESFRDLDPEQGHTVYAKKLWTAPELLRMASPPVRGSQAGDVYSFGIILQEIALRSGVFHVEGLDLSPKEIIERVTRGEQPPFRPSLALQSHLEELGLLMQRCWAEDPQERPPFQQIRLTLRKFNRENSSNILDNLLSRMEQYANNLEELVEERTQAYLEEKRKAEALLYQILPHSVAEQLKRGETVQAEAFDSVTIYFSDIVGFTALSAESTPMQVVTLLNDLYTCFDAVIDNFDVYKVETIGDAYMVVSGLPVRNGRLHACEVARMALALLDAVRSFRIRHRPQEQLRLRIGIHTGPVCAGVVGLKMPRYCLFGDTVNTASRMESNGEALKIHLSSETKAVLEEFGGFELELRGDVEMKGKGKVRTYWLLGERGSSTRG
B1 was tested, and the “% Activation (vs ANP max), Expt 1” value was 56.1% and the “EC50 (nM), calcium flux, Expt 1” value was 326 nM. For B2, the “% Activation (vs ANP max), Expt 1” value was 67.7% and the “EC50 (nM), calcium flux, Expt 1” value was 335 nM. B3 was tested, and the “% Activation (vs ANP max), Expt 1” value was 71.1%, the “% Activation (vs. ANP max), Expt II” value was 103% and the “EC50 (nM), calcium flux, Expt 1” value was 72.6 nM. The “EC50 (nM), calcium flux, Expt II” value was 56.4 nM. With B4 the “% Activation (vs ANP max), Expt 1” value was 66.7%, the “% Activation (vs. ANP max), Expt II” value was 82.8% and the “EC50 (nM), calcium flux, Expt 1” value was 174 nM. The “EC50 (nM), calcium flux, Expt II” value was 102 nM.

The binders below were run against T1, human NPR1 on HEK293/hNPR1.myc.DDK … (assay: ECL cell binding (MSD), 0 hANP).
Description: (§1) All cells were washed once with 1×PBS with Ca²⁺/Mg²⁺ and counted with a Cellometer™ Auto T4 cell counter (Nexcelom Bioscience). Approximately 2.0×10⁴ HEK293/hNPR1.myc.DDK or HEK293 cells were seeded separately onto 96-well carbon electrode plates (MULTI-ARRAY high bind plate, Meso Scale Discovery (MSD, Rockville, MD)) and incubated for 1 hour (h) at 37° C. Nonspecific binding sites were blocked by 2% BSA (w/v) in 1×PBS with Ca²⁺/Mg²⁺for 1 h at room temperature (RT). HEK293/hNPR1.myc. […] The plate-bound antibodies were detected with SULFO-TAG™-conjugated goat polyclonal anti-human IgG antibody specific for heavy and light chains (Jackson Immunoresearch, West Grove, PA) for 1 h, RT.
(§2) After washes, plates were developed with Read Buffer (MSD, Rockville, MD) according to manufacturer's recommended procedure and luminescent signals were recorded with a SECTOR Imager 600 (MSD, Rockville, MD). Luminescence intensity, measured in relative light units (RLU), was recorded to indicate the binding intensity of each antibody at the range of concentrations.
(§3) In addition, direct binding signals (RLU) were analyzed as a function of the antibody concentration and data were fitted with a sigmoidal (four-parameter logistic) dose-response model using R statistical package (open source).
In the case of B1, the “Ratio at 3.7 nM Ab concentration of Cell Binding Signal (RLU) to HEK293/hNPR1.myc.DKK relative to parental HEK293” value is reported as 18 ratio. In the case of B2, the EC50 is reported as 4.6 nM and the “Ratio at 3.7 nM Ab concentration of Cell Binding Signal (RLU) to HEK293/hNPR1.myc.DKK relative to parental HEK293” value is reported as 41 ratio. With B3 the EC50 was 1.5 nM and the “Ratio at 3.7 nM Ab concentration of Cell Binding Signal (RLU) to HEK293/hNPR1.myc.DKK relative to parental HEK293” value was 50 ratio. In the case of B4, the EC50 is reported as 1.7 nM and the “Ratio at 3.7 nM Ab concentration of Cell Binding Signal (RLU) to HEK293/hNPR1.myc.DKK relative to parental HEK293” value is reported as 30 ratio.

These binders were tested against T2, human NPR1 on HEK293/hNPR1.myc.DDK cells with 10 nM hANP (NPR1-ANP complex) (human, UniProt P01160 124-151) (assay: ECL cell binding (MSD), +10 nM hANP).
T2 construct: also called NPR1-ANP Complex on the Cell Surface
T2 sequence: T1 sequence
T2 sequence (peptide): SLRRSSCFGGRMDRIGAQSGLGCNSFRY
Description: as §1, §2, §3
With B1 the EC50 was 1.3 nM and the “Ratio at 3.7 nM Ab concentration of Cell Binding Signal (RLU) to HEK293/hNPR1.myc.DKK relative to parental HEK293” value was 35 ratio. B2 was tested, and the EC50 was 1.8 nM and the “Ratio at 3.7 nM Ab concentration of Cell Binding Signal (RLU) to HEK293/hNPR1.myc.DKK relative to parental HEK293” value was 49 ratio. In the case of B3, the EC50 is reported as 0.87 nM and the “Ratio at 3.7 nM Ab concentration of Cell Binding Signal (RLU) to HEK293/hNPR1.myc.DKK relative to parental HEK293” value is reported as 87 ratio. With B4 the EC50 was 1.2 nM and the “Ratio at 3.7 nM Ab concentration of Cell Binding Signal (RLU) to HEK293/hNPR1.myc.DKK relative to parental HEK293” value was 51 ratio.

These binders were tested against T3, mfNPR1-mFc:hBNP complex (monkey; human, UniProt P16860 103-134) (assay: SPR Biacore, mAb captured by anti-human Fc, 37C).
T3 construct: Receptor-Fc pre-complexed with 10-fold hBNP
Description: (§4) Equilibrium dissociation constant (KD) for different NPR1 reagents binding to purified anti-NPR1 monoclonal antibodies (mAbs) were determined using a real-time surface plasmon resonance based Biacore 4000 biosensor. All binding studies were performed in 10 mM HEPES, 150 mM NaCl, 3 mM EDTA, and 0.05% v/v Surfactant Tween-20, pH 7.4 (HBS-ET) running buffer at 25° C. and 37° C. The Biacore CM5 sensor chip surface was first derivatized by amine coupling with either mouse anti-human Fc specific mAb (GE Healthcare, #BR100839) or goat anti-human Fcy specific polyclonal antibody (Jackson ImmunoResearch Laboratories, #BR-1008-39) to capture anti-NPR1 mAbs.
B1 was tested, and the “100 nM Ag Bound (RU)” value was 266 RU, the Kd was 0.354 nM and the koff was 0.00015 s⁻¹. For the same binder, the kon was 423000 M⁻¹ s⁻¹ and the t½ was 77.1 min. In the case of B2, the “100 nM Ag Bound (RU)” value is reported as 113 RU, the Kd is reported as 8.91 nM and the koff is reported as 0.000464 s⁻¹. For the same binder, the kon was 52100 M⁻¹ s⁻¹ and the t½ was 24.9 min. In the case of B3, the “100 nM Ag Bound (RU)” value is reported as 100 RU, the Kd is reported as 2.9 nM and the koff is reported as 0.000166 s⁻¹. It also gave a kon of 57400 M⁻¹ s⁻¹ and a t½ of 69.5 min. B4 was tested, and the “100 nM Ag Bound (RU)” value was 135 RU, the Kd was 5.53 nM and the koff was 0.000293 s⁻¹. For the same binder, the kon was 53000 M⁻¹ s⁻¹ and the t½ was 39.4 min.

Biological target: T4, mNPR1-mFc (mouse)
T4 construct: also called mouse NPR1 extracellular domain expressed with a C-terminal mouse IgG2a
T4 chain: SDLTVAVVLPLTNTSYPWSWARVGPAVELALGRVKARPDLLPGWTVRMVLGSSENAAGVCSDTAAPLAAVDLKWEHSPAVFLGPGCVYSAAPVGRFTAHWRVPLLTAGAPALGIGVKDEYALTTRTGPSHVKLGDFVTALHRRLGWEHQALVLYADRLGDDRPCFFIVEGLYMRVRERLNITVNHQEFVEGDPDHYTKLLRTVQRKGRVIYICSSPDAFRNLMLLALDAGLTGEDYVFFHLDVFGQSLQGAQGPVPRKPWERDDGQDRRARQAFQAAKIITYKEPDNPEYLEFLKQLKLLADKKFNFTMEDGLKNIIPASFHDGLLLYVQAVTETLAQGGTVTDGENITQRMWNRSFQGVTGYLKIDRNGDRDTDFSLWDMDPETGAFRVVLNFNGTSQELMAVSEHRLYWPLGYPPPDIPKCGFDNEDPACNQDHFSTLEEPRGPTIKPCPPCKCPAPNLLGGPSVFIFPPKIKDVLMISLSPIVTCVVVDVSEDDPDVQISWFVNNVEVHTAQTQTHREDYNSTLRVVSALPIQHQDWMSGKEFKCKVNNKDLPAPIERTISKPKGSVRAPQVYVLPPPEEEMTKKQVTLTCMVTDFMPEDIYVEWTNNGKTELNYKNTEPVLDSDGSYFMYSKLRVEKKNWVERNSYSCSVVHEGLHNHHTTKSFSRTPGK
Assay: SPR Biacore, mAb captured by anti-human Fc, 37C
Description: as §4
In the case of B1, the “100 nM Ag Bound (RU)” value is reported as 0 RU. For B2, the “100 nM Ag Bound (RU)” value was 0 RU and the binding result was “no binding (tested: 100 nM)”. For B3, the “100 nM Ag Bound (RU)” value was 1 RU and the binding result was “no binding (tested: 100 nM)”. In the case of B4, the “100 nM Ag Bound (RU)” value is reported as 2 RU.

Biological target: T4, mNPR1-mFc
Assay: SPR Biacore, mAb captured by anti-human Fc, 25C
Description: as §4
B1 was tested, and the “100 nM Ag Bound (RU)” value was -1 RU. For B2, the “100 nM Ag Bound (RU)” value was 0 RU. In the case of B3, the “100 nM Ag Bound (RU)” value is reported as 1 RU. B4 was tested, and the “100 nM Ag Bound (RU)” value was -1 RU.

From patent publication US20240309103A1 (Regeneron, published 2024)
